Reference: article PMC3140970, “The Eps8/IRSp53/VASP Network Differentially Controls Actin Capping and Bundling in Filopodia Formation” (PLoS Computational Biology, 2011)

Target: T1, His-IRSp53 (UniProt Q9UQB8 1-552)
T1 sequence (looked up): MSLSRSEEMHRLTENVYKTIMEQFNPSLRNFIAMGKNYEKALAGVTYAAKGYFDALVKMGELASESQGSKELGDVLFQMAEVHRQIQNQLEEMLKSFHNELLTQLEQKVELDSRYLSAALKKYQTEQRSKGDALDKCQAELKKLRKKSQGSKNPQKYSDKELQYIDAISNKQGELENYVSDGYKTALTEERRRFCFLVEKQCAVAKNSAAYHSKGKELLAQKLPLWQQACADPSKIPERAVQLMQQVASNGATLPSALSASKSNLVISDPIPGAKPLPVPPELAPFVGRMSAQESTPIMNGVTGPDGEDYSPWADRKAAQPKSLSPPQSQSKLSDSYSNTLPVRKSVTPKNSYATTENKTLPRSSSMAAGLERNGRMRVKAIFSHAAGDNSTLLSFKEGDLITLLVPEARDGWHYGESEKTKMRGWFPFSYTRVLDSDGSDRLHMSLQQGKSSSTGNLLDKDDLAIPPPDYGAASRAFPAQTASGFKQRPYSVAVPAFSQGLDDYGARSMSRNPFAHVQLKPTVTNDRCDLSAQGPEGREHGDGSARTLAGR
Assay: far-Western, overlay or dot blot; 10 pmoles of His-IRSp53, GST-IRSp53-SH3 or BSA spotted onto nitrocellulose, incubated with increasing concentrations of purified VASP; anti-VASP immunoblot; fraction bound against total VASP; apparent dissociation constant
Conditions: both partners purified

Kd: 12.5 nM
B1: VASP, recombinant, cleaved from GST (natural protein, human, UniProt P50552 1-380, looked up)
chain: MSETVICSSRATVMLYDDGNKRWLPAGTGPQAFSRVQIYHNPTANSFRVVGRKMQPDQQVVINCAIVRGVKYNQATPNFHQWRDARQVWGLNFGSKEDAAQFAAGMASALEALEGGGPPPPPALPTWSVPNGPSPEEVEQQKRQQPGPSEHIERRVSNAGGPPAPPAGGPPPPPGPPPPPGPPPPPGLPPSGVPAAAHGAGGGPPPAPPLPAAQGPGGGGAGAPGLAAAIAGAKLRKVSKQEEASGGPTAPKAESGRSGGGGLMEEMNAMLARRRKATQVGEKTPKDESANQEEPEARVPAQSESVRRPWEKNSTTLPRMKSSSSVTTSETQPCTPSSSDYSDLQRVKQELLEEVKKELQKVKEEIIEAFVQELRKRGSP
notes: also called purified VASP; recombinant human VASP
